Here are results for one molecule from PMC11832919 (Nature Communications, 2025).

The target in this assay is StrepTag II-IsdB (Staphylococcus aureus iron-regulated surface determinant protein B) (S. aureus, UniProt Q2FZF0 41-613). Description: SAXS.
StrepTag II-IsdB (Staphylococcus aureus iron-regulated surface determinant protein B), sequence (Q2FZF0 41-613): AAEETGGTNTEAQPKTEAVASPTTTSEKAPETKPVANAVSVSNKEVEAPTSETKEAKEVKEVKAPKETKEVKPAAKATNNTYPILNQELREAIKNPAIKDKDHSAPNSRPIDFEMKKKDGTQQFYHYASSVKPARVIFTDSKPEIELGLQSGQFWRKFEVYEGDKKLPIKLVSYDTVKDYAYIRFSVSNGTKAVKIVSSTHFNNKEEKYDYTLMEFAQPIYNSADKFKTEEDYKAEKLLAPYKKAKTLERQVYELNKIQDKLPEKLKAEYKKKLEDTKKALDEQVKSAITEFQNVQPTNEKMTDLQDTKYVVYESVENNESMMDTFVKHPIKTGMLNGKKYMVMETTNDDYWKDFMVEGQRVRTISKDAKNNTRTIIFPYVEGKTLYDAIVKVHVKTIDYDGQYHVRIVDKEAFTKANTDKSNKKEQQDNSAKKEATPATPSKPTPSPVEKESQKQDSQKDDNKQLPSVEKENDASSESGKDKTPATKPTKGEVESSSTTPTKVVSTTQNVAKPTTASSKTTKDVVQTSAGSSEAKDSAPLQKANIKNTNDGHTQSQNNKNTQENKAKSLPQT

B1: human methemoglobin (coordinating oxidized heme) (complex)
chain 1: not shown
chain 2: not shown
For orientation: Kd means the equilibrium constant for the complex coming apart. Low values mean tighter binding, high ones weaker binding. In turn, B1 yielded a Kd of 1680 ± 620 nM.
